The results in this text go back to the Immune Epitope Database (IEDB).

A value given as a limit tells only on which side of the number the result lay.

One experiment concerns the target HLA-B*15:02. In words: IEDB peptide-MHC binding, purified MHC/competitive/fluorescence; filed as Kd, often an IC50 or EC50 that approximates it; ≥ and ≤ were set here for values at or beyond the usual limits of such assays. The conditions noted are these: source organism: Homo sapiens.
The target in the next experiment is HLA-B*46:01. The description is as above. The conditions noted are these: source organism: Homo sapiens.
Experiment [1] deals with HLA-A*02:01. In words: IEDB peptide-MHC binding, purified MHC/competitive/radioactivity; filed as Kd, often an IC50 or EC50 that approximates it; ≥ and ≤ were set here for values at or beyond the usual limits of such assays. The conditions noted are these: source organism: Homo sapiens.
Experiment [2] has as its target HLA-A*29:02. The experiment is described as above. The conditions noted are these: source organism: Homo sapiens.
In experiment [3] the target is HLA-B*58:01. The experiment is described as above. The conditions noted are these: source organism: Homo sapiens.
Experiment [4] concerns the target HLA-B*57:01. The experiment is described as above. Particulars: source organism: Homo sapiens.
A further experiment has as its target HLA-A*02:07. The description is as above. Particulars: source organism: Homo sapiens.
The next experiment addresses HLA-A*02:12. The experiment can be described thus: IEDB peptide-MHC binding, purified MHC/direct/fluorescence; filed as Kd, often an IC50 or EC50 that approximates it; ≥ and ≤ were set here for values at or beyond the usual limits of such assays. Particulars: source organism: Geobacillus sp. WCH70.
Experiment [5] addresses HLA-A*02:01. Described as above.
In another experiment the target is HLA-A*02:06. Described as above. Particulars: source organism: Geobacillus sp. WCH70.
Another experiment concerns the target HLA-A*02:03. In words: IEDB peptide-MHC binding, purified MHC/competitive/fluorescence; filed as Kd, often an IC50 or EC50 that approximates it; ≥ and ≤ were set here for values at or beyond the usual limits of such assays.
In another experiment the target is HLA-B*27:05. In words: IEDB peptide-MHC binding, purified MHC/direct/fluorescence; filed as Kd, often an IC50 or EC50 that approximates it; ≥ and ≤ were set here for values at or beyond the usual limits of such assays. Particulars: source organism: Camelpox virus M-96.
For experiment [6], the target named is HLA-A*68:02. Described as above. Particulars: source organism: Camelpox virus M-96.
Experiment [7] concerns the target HLA-A*01:01. Described as above. Particulars: source organism: Camelpox virus M-96.
A further experiment concerns the target HLA-B*48:01. The experiment is described as above. Particulars: source organism: Camelpox virus M-96.
For experiment [8], the target named is HLA-B*58:01. The description is as above. The conditions noted are these: source organism: Camelpox virus M-96.
The target in a further experiment is HLA-B*08:03. Described as above. The conditions noted are these: source organism: Variola virus.
In the next experiment the target is HLA-B*15:01. The experiment is described as above. Particulars: source organism: Camelpox virus M-96.
For a further experiment, the target named is HLA-B*15:17. The experiment is described as above. The conditions noted are these: source organism: Camelpox virus M-96.
The target of the next experiment is HLA-A*69:01. The description is as above. Particulars: source organism: Camelpox virus M-96.
For experiment [9], the target named is HLA-B*18:01. The experiment is described as above. Particulars: source organism: Camelpox virus M-96.
Experiment [10] addresses HLA-B*57:01. The experiment is described as above. The conditions noted are these: source organism: Camelpox virus M-96.
A further experiment deals with HLA-A*26:03. The experiment is described as above. Particulars: source organism: Variola virus.
Another experiment has as its target HLA-A*30:01. In words: IEDB peptide-MHC binding, purified MHC/competitive/fluorescence; filed as Kd, often an IC50 or EC50 that approximates it; ≥ and ≤ were set here for values at or beyond the usual limits of such assays. Particulars: source organism: Vaccinia virus Copenhagen.
Experiment [11] has as its target HLA-A*11:01. Described as above. The conditions noted are these: source organism: Vaccinia virus Copenhagen.
Experiment [12] deals with HLA-B*07:02. The description is as above. The conditions noted are these: source organism: Vaccinia virus Copenhagen.
Experiment [13] addresses HLA-B*08:01. The description is as above. Particulars: source organism: Vaccinia virus Copenhagen.
The next experiment deals with HLA-A*03:01. In words: IEDB peptide-MHC binding, purified MHC/competitive/fluorescence; ≥ and ≤ were set here for values at or beyond the usual limits of such assays. Particulars: source organism: Mus musculus.
The next experiment addresses HLA-B*35:01. The experiment is described as above. Particulars: source organism: Mus musculus.
The next experiment concerns the target HLA-B*14:02. The experiment is described as above. Particulars: source organism: Mus musculus.
Experiment [14] concerns the target HLA-A*11:01. The experiment is described as above. The conditions noted are these: source organism: Mus musculus.
The target in experiment [15] is HLA-B*07:02. The description is as above. Particulars: source organism: Mus musculus.
Experiment [16] has as its target HLA-A*02:01. The description is as above. Particulars: source organism: Mus musculus.
Experiment [17] addresses HLA-A*29:02. The description is as above. The conditions noted are these: source organism: Mus musculus.
The target of experiment [18] is HLA-A*68:02. The experiment is described as above. The conditions noted are these: source organism: Mus musculus.
Experiment [19] has as its target HLA-A*01:01. Described as above. Particulars: source organism: Mus musculus.
The target of a further experiment is HLA-B*40:02. Described as above. Particulars: source organism: Mus musculus.
The target in experiment [20] is HLA-B*58:01. The description is as above. The conditions noted are these: source organism: Mus musculus.
The target of a further experiment is HLA-A*31:01. The experiment is described as above. Particulars: source organism: Mus musculus.
A further experiment has as its target HLA-B*51:01. Described as above. The conditions noted are these: source organism: Mus musculus.
The target of experiment [21] is HLA-B*08:01. The experiment is described as above. The conditions noted are these: source organism: Mus musculus.
The target in another experiment is HLA-A*24:02. Described as above. The conditions noted are these: source organism: Mus musculus.
A further experiment addresses HLA-B*53:01. The description is as above. Particulars: source organism: Mus musculus.
The target in the next experiment is HLA-A*25:01. The description is as above. The conditions noted are these: source organism: Mus musculus.
The next experiment deals with HLA-B*44:03. The experiment is described as above. Particulars: source organism: Mus musculus.
A further experiment addresses HLA-B*37:01. The experiment is described as above. Particulars: source organism: Mus musculus.
The target of experiment [22] is HLA-B*18:01. Described as above. The conditions noted are these: source organism: Mus musculus.

As a reminder, the Kd is the constant that tells how readily two partners part at equilibrium. Regarding FAFVTDNTY, the Kd with HLA-B*15:02 was 0.00255 µM; in the experiment with HLA-B*46:01, 0.0131 µM; in the experiment with HLA-A*02:01 [1], ≥ 78.1 µM; with HLA-A*29:02 [2], 0.0441 µM; with HLA-B*58:01 [3], 0.084 µM; in the experiment with HLA-B*57:01 [4], 0.106 µM. Further, the Kd with HLA-A*02:07 was ≥ 77.7 µM.
For the sequence GLPESTPSL, the Kd in the experiment with HLA-A*02:12 is 0.12 µM; with HLA-A*02:01 [5] (source organism: Bacillus cereus), 0.0121 µM; in the experiment with HLA-A*02:06, 0.014 µM; with HLA-A*02:03 (source organism: Bacillus anthracis str. A0488), 0.0214 µM.
Consider NRLKPRDFK, for which the Kd is ≥ 20 µM with HLA-A*02:01 [5] (source organism: Camelpox virus M-96); 1.79 µM with HLA-B*27:05; ≥ 20 µM with HLA-A*68:02 [6]; ≥ 20 µM with HLA-A*01:01 [7]; ≥ 20 µM in the experiment with HLA-B*48:01; ≥ 20 µM in the experiment with HLA-B*58:01 [8]. For the same sequence, the Kd in the experiment with HLA-B*08:03, with HLA-B*15:01, with HLA-B*15:17, in the experiment with HLA-A*69:01, with HLA-B*18:01 [9] and in the experiment with HLA-B*57:01 [10] was ≥ 20 µM each time. Moreover, the Kd with HLA-A*26:03 was ≥ 20 µM; with HLA-A*30:01, ≥ 20 µM; with HLA-A*11:01 [11] it was ≥ 20 µM; with HLA-B*07:02 [12], 3 µM; with HLA-B*08:01 [13] it was 3 µM; with HLA-A*02:03 (source organism: Vaccinia virus Copenhagen), ≥ 20 µM.
Broadly, the IC50 is the concentration that inhibits the measured activity by half. High values mean weaker potency, low ones greater potency. Consider VALFSSCPVAY, for which the IC50 is ≥ 20 µM with HLA-A*03:01; 0.0138 µM in the experiment with HLA-B*35:01; ≥ 20 µM in the experiment with HLA-B*14:02; ≥ 20 µM with HLA-A*11:01 [14]; ≥ 20 µM with HLA-B*07:02 [15]; ≥ 20 µM in the experiment with HLA-A*02:01 [16]. The IC50 with HLA-A*29:02 [17] is 0.0381 µM; in the experiment with HLA-A*68:02 [18], ≥ 20 µM; in the experiment with HLA-A*01:01 [19], ≥ 20 µM; with HLA-B*40:02, ≥ 20 µM; in the experiment with HLA-B*58:01 [20], ≥ 20 µM; with HLA-A*31:01, ≥ 20 µM. Besides, the IC50 in the experiment with HLA-B*51:01, with HLA-B*08:01 [21], with HLA-A*24:02, with HLA-B*53:01, with HLA-A*25:01 and with HLA-B*44:03 was ≥ 20 µM throughout. The IC50 with HLA-B*37:01 and in the experiment with HLA-B*18:01 [22] was ≥ 20 µM in each case.
